Residue numbers refer to the chain shown, from its start.

We go through 8 molecules from US20160194394A1 (GOVERNING COUNCIL OF THE UNIVERSITY OF TORONTO, published 2016).

Assay [1] deals with T1, FZD7 receptor expressed on cells (full-length) (UniProt O75084 33-574, limits assumed).
T1 construct: whole, on cells; MDA MB 231 cells may carry other Frizzled receptors too; also called full-length FZD7 receptor; endogenous receptor on MDA MB 231 cells
Description: flow cytometry, 200 nM Fab, MDA MB 231. As to the method:
(§1) FIG. 3 is a table depicting the binding of the purified Fabs to cells expressing FZD7 (flow cytometry). Small scale Fabs were assayed for binding to full-length FZD7 receptor to an over-expression line in MDA MB 231 cells. In parallel, Fabs were assayed for binding to endogenous receptor expressed on the MDA MB 231 cells. Cells were harvested using an EDTA solution, blocked in 2% FBS/PBS (stain buffer), and stained with 200 nM Fab for 30 min on ice. Cells were washed two times with stain buffer and incubated with anti-F(ab′)₂-APC secondary antibody (Jackson Immuno) at 1:1000 for 15 minutes on ice. All antibodies were diluted in stain buffer. Cells were washed three times with stain buffer and then fixed with 1% paraformaldehye for analysis by flow cytometry. […] The percent of the cell population within the positive gates is indicated.
Background: A flow cytometer gives signals particle by particle.

In assay [2] the target is T2, recombinant Frizzled receptor 7 (FZD7) cysteine-rich domain (CRD) fused to the Fc region of human IgG (human, UniProt O75084 33-185). Description: ELISA, 10ug/ml (200nM) Fab. How it is done: (§2) FIG. 2B is a table depicting the binding of purified Fabs to purified FZD7-Fc measured by ELISA. Fabs purified from 25 ml bacterial cultures were assayed for binding to FZD7-Fc fusion protein (R&D systems) and Fc protein. ELISA plates (384 well) were coated with 2 ug/ml of protein in PBS overnight at four degrees. Wells were blocked with 0.5% BSA/PBS for 1 hour at room temperature, washed three times with 0.05% Tween20/PBS (wash buffer), and then primary dilutions of Fabs in 0.5% BSA/0.05% Tween20/PBS (dilution buffer) were added at indicated concentrations. Fabs were incubated for 1 hour at room temperature, wells were washed six times, and anti-FLAG-HRP (Sigma) was added at 1:5000 in dilution buffer. Secondary antibody was incubated for 45 minutes at room temperature, and wells were washed six times and developed with TMB substrate with an acid stop. The absorbance at 450 nm was read. n.t.=not tested.

The target in assay [3] is T3, Fc control protein.
T3 construct: also called Fc protein; control Fc protein
Description: ELISA, 10ug/ml (200nM) Fab. How it is done:
as §2

Assay [4] addresses T1, FZD7 receptor expressed on cells …. As to the kind of experiment: flow cytometry, 200 nM Fab, FZD7 over-expression line (MDA MB 231). As to the method:
as §1

Assay [5] addresses T2, recombinant Frizzled receptor 7 (FZD7) …. As to the kind of experiment: ELISA, 1ug/ml (20nM) Fab. How it is done: as §2
In assay [6] the target is T3, Fc control protein. As to the kind of experiment: ELISA, 1ug/ml (20nM) Fab. As to the method:
as §2

Assay [7] addresses T2, recombinant Frizzled receptor 7 (FZD7) …. Description: ELISA, 10ug/ml (200nM) Fab [cont'd]. How it is done:
as §2

Assay [8] deals with T3, Fc control protein. As to the kind of experiment: ELISA, 10ug/ml (200nM) Fab [cont'd]. As to the method:
as §2
In general terms: An ELISA detects its analyte on a solid surface through an enzyme-linked reagent.

The target of assay [9] is T2, recombinant Frizzled receptor 7 (FZD7) …. As to the kind of experiment: ELISA, 1ug/ml (20nM) Fab [cont'd]. How it is done: as §2
Assay [10] addresses T3, Fc control protein. Description: ELISA, 1ug/ml (20nM) Fab [cont'd]. How it is done: as §2
Assay [11] has as its target T1, FZD7 receptor expressed on cells …. As to the kind of experiment: flow cytometry, 200 nM Fab, FZD7 over-expression line (MDA MB 231) [cont'd]. As to the method:
as §1

The target is the same in assay [12]. As to the kind of experiment: flow cytometry, 200 nM Fab, MDA MB 231 [cont'd]. How it is done: as §1

B1: G1 (Fab)
light: DIQMTQSPSSLSASVGDRVTITCRASQSVSSAVAWYQQKPGKAPKLLIYSASSLYSGVPSRFSGSRSGTDFTLTISSLQPEDFATYYCQQWGYGALITFGQGTKVEIKRTVAAPSVFIFPPSDSQLKSGTASVVCLLNNFYPREAKVQWKVDNALQSGNSQESVTEQDSKDSTYSLSSTLTLSKADYEKHKVYACEVTHQGLSSPVTKSFNRGECGGS
heavy: EVQLVESGGGLVQPGGSLRLSCAASGFNISYSSIHWVRQAPGKGLEWVASIYPSPGYTSYADSVKGRFTISADTSKNTAYLQMNSLRAEDTAVYYCARHGWYGLDYWGQGTLVTVSSASTKGPSVFPLAPSSKSTSGGTAALGCLVKDYFPEPVTVSWNSGALTSGVHTFPAVLQSSGLYSLSSVVTVPSSSLGTQTYICNVNHKPSNTKVDKKVEPKSC
notes: selection round 2; same four CDRs as Fzd7-R2-G12 (f18); also called Fzd7-R2-G1
Regarding B1, the “% population within the positive gate” value amounted to 28.6% in [1] and 83.4% in [4]. Moreover, the “OD 450” value in assay [2] came out at 3.18; in the assay with Fc control protein [3], 0.05; in assay [5] it was 3.17; with Fc control protein [6], 0.05.

B2: G12 (Fab)
light: B1 light
heavy: B1 heavy
notes: selection round 2; also called Fzd7-R2-G12
Take B2: the “% population within the positive gate” value was 33.3% in assay [1] and 83.8% in assay [4]. Moreover, the “OD 450” value in assay [2] was determined as 3.19; with Fc control protein [3], 0.14; in assay [5], 3.13; in the assay with Fc control protein [6] it was 0.06.

B3: B11 (Fab)
light: DIQMTQSPSSLSASVGDRVTITCRASQSVSSAVAWYQQKPGKAPKLLIYSASSLYSGVPSRFSGSRSGTDFTLTISSLQPEDFATYYCQQYFYSSYSPITFGQGTKVEIKRTVAAPSVFIFPPSDSQLKSGTASVVCLLNNFYPREAKVQWKVDNALQSGNSQESVTEQDSKDSTYSLSSTLTLSKADYEKHKVYACEVTHQGLSSPVTKSFNRGECGGS
heavy: EVQLVESGGGLVQPGGSLRLSCAASGFNISYSYMHWVRQAPGKGLEWVAYIYPSYSSTSYADSVKGRFTISADTSKNTAYLQMNSLRAEDTAVYYCARASYWALDYWGQGTLVTVSSASTKGPSVFPLAPSSKSTSGGTAALGCLVKDYFPEPVTVSWNSGALTSGVHTFPAVLQSSGLYSLSSVVTVPSSSLGTQTYICNVNHKPSNTKVDKKVEPKSC
notes: selection round 2; also called Fzd7-R2-B11
Consider B3, for which the “OD 450” value in assay [7] is 3.2; with Fc control protein [8] it was 0.08; in assay [9], 3.15; in the assay with Fc control protein [10], 0.05. Besides, the entries for the “% population within the positive gate” value in [11] and in assay [12] were 91.2% and 97.2%, respectively.

B4: A7 (Fab)
light: DIQMTQSPSSLSASVGDRVTITCRASQSVSSAVAWYQQKPGKAPKLLIYSASSLYSGVPSRFSGSRSGTDFTLTISSLQPEDFATYYCQQYHYGYYPFTFGQGTKVEIKRTVAAPSVFIFPPSDSQLKSGTASVVCLLNNFYPREAKVQWKVDNALQSGNSQESVTEQDSKDSTYSLSSTLTLSKADYEKHKVYACEVTHQGLSSPVTKSFNRGECGGS
heavy: B3 heavy with I29L, Y31S, M34I, P53S, S56G, S59Y, Y101W, L104I
notes: selection round 2; also called Fzd7-R2-A7
Turning to B4, the “OD 450” value in [7] is 3.22; in the assay with Fc control protein [8], 0.07; in [9], 3.19; in the assay with Fc control protein [10] it was 0.07. Moreover, the “% population within the positive gate” value in assay [11] was 92.7%; in assay [12], 96.3%.

B5: H8 (Fab)
light: B3 light with Y91S, S94W, S95G, S97P, I99F
heavy: EVQLVESGGGLVQPGGSLRLSCAASGFNIYSSSIHWVRQAPGKGLEWVASIYSYYGYTYYADSVKGRFTISADTSKNTAYLQMNSLRAEDTAVYYCARWYAFDYWGQGTLVTVSSASTKGPSVFPLAPSSKSTSGGTAALGCLVKDYFPEPVTVSWNSGALTSGVHTFPAVLQSSGLYSLSSVVTVPSSSLGTQTYICNVNHKPSNTKVDKKVEPKSC
notes: selection round 2; also called Fzd7-R2-H8
As for B5, the “OD 450” value in assay [7] is 2.7; with Fc control protein [8], 0.08; in [9] it was 0.78; with Fc control protein [10] it was 0.06. Further, the results for the “% population within the positive gate” value in assay [11] and in assay [12] were 79.6% and 1.1%, respectively.

B6: C10 (Fab)
light: B4 light with Y91S, H92A, Y93W, G94W, Y95A, Y96S, P97L
heavy: EVQLVESGGGLVQPGGSLRLSCAASGFNISSYSIHWVRQAPGKGLEWVASIYPYSSYTYYADSVKGRFTISADTSKNTAYLQMNSLRAEDTAVYYCARYSGFAMDYWGQGTLVTVSSASTKGPSVFPLAPSSKSTSGGTAALGCLVKDYFPEPVTVSWNSGALTSGVHTFPAVLQSSGLYSLSSVVTVPSSSLGTQTYICNVNHKPSNTKVDKKVEPKSC
notes: selection round 2; also called Fzd7-R2-C10
In the case of B6, the “% population within the positive gate” value in [1] came to 0.9%; in assay [4], 50.5%. The “OD 450” value turned out to be 2.05 in assay [2], 0.06 with Fc control protein [3], 0.37 in [5] and 0.07 with Fc control protein [6].

B7: F9 (Fab)
light: B4 light with Y91W, H92Y, Y95W, Y96H, P97L, F98I
heavy: B1 heavy with P55Y, S59Y, H99Y, W101Y, Y102F, L104M
notes: selection round 2; also called Fzd7-R2-F9
Take B7: the “% population within the positive gate” value in assay [1] worked out at 50.3%; in [4], 88.3%. Besides, the “OD 450” value in assay [2] came to 3.16; with Fc control protein [3] it was 0.06; in assay [5] it was 3.11; with Fc control protein [6], 0.06.

B8: E11 (Fab)
light: B4 light with H92S, Y96A, P97L
heavy: EVQLVESGGGLVQPGGSLRLSCAASGFNLSSYYMHWVRQAPGKGLEWVASIYPYYSYTYYADSVKGRFTISADTSKNTAYLQMNSLRAEDTAVYYCARYWSGFDYWGQGTLVTVSSASTKGPSVFPLAPSSKSTSGGTAALGCLVKDYFPEPVTVSWNSGALTSGVHTFPAVLQSSGLYSLSSVVTVPSSSLGTQTYICNVNHKPSNTKVDKKVEPKSC
notes: selection round 2; also called Fzd7-R2-E11
Regarding B8, the “% population within the positive gate” value came to 99.2% in assay [1] and 94.2% in assay [4]. Moreover, the “OD 450” value in assay [2] worked out at 3.22; in the assay with Fc control protein [3] it was 0.06; in [5], 3.24; in the assay with Fc control protein [6], 0.05.
